Substitutions are numbered along the chain they refer to.
T1: Latent Activin A (human, UniProt P08476 21-426, limits assumed)
T1 construct: also called INHBA latent
T1 sequence: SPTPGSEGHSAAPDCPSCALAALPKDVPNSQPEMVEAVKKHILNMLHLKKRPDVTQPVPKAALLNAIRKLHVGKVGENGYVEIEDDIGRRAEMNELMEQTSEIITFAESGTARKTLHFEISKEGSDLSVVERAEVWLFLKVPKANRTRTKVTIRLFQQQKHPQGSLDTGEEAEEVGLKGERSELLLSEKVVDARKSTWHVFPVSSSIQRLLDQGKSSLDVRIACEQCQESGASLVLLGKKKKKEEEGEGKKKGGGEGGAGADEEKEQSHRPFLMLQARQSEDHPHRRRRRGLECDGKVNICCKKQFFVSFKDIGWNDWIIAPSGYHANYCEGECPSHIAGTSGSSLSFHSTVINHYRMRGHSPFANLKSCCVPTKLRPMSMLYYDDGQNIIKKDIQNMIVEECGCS

T2: Mature Activin A (human, UniProt P08476 311-426)
T2 construct: also called active Activin A; INHBA mature
T2 sequence: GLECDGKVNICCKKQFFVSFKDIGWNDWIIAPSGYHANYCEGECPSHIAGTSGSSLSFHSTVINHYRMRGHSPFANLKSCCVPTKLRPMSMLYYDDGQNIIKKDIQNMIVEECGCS

T3: Activin B (Homo sapiens (Human), UniProt P09529 293-407)
T3 construct: also called Mature Activin B; mature Activin B
T3 sequence: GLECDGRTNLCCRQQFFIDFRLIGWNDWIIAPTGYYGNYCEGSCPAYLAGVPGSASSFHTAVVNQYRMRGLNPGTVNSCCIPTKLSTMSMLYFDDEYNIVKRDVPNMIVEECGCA

T4: Inhibin A (Homo sapiens (Human), UniProt P05111 233-366; P08476 311-426)
T4 sequence 1: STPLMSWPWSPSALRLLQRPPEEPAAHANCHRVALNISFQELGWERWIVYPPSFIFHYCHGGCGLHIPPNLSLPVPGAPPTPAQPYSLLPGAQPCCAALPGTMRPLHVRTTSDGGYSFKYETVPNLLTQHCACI
T4 sequence 2: T2 sequence

B1: AB731 (antibody, IgG1, V domains shown)
VH: QVQLQQPGTELVKPGASVKLSCKASGYTFTSYWMHWVKQRPGQGLEWIGNINPSNGGTNYNEKFKSKATLTVDKSSSTAYMQLSSLTSEDSAVYYCSITTVVAYWYFDVWGTGTTVTVSS
VL: ENVLTQSPAIMSASPGEKVTISCSASSSVSYMYWYQQKPGSSPKPWIFRTYNLASGVPARFSGSGSGTSYSLTISNMEAEDAATYYCQQRSSYPWTFGGGTKLEIK
notes: also called clone 731
B2: AB372 (antibody, IgG1, V domains shown)
VH: QVTLRESGPALVKPTQTLTLTCTVSGFSLSTSGATVNWIRQPPGKALEWIGYITSSGRTVYNSALKSRLTISKDTSKNQVVLTMTNMDPVDTATYYCTTTKIVGATLRDYWGQGTLVTVSS
VL: DIVMTQSPDSLAVSLGERATINCKSSQSVLDTSTNRNYLAWYQQKPGQPPKLLIYGASIRAGGVPDRFSGSGSGTDFTLTISSLQAEDVAVYYCQQSYSHPPTFGGGTKVEIK
B3: AB363 (antibody, IgG1, V domains shown)
VH: B2 VH
VL: DIQMTQSPSSVSASVGDRVTITCRASQGISNDLAWYQQKPGKAPKLLIYDVSNRASGVPSRFSGSGSGTDFTLTISSLQPEDFANYYCQQYDNPPSFGGGTKVEIK
B4: AB854 (antibody, IgG1, V domains shown)
VH: EVQLVQSGAEVKKPGASVKVSCKASGYTFPSHYISWVRQAPGQGLEWMGGMNPITGHTIYAQKLQGRGTMTTDPSTSTAYMELRSLRSDDTAVYYCARDMRYDILPGRSYYYGMDVWGQGTTVTVSS
VL: ESALTQPASVSGSPGQSITISCTGTTGSIASNYVSWYQQHPGKAPKLMIYDTTNRPPGVSNRFSGSKSGNTASLTISGLQAEDEADYYCQSTERGRSDVIFGGGTKLTVL
notes: also called clone 854
B5: AB357 (antibody, IgG1, V domains shown)
VH: B4 VH
VL: ESALTQPASVSGSPGQSITISCTGTDIRGMSVSWYQQHPGKAPKLMIYEVNQRPSGVSNRFSGSKSGNTASLTISGLQAEDEADYYCAAWDASVAGYVFGGGTKLTVL
B6: AB432 (antibody, IgG1, V domains shown)
VH: QVQLQESGPGLVKPSQTLSLTCTVSGVSLSNVRMGVNWIRQPPGKGLEWIGYVNPSGSTDYNPSLKSRVTMSVDTSKNQFSLKVNSVTAADTAVYYCARAGYPDVWGKGTLVTVSS
VL: EIVMTQSPATLSLSPGERATLSCRASQSISSSQLAWYQQKPGQAPRLLIYGASTRATGIPARFSGSGSGTDFTLTISSLEPEDFAVYYCQQYNDRPRTFGGGTKVEIK
B7: AB346 (antibody, IgG1, V domains shown)
VH: B6 VH with V27F, S28P, N31T, V32S, V53I, S58A, L111T
VL: EIVMTQSPATLSLSPGERATLSCRASRSVSSDLAWYQQKPGQAPRLLIYDVSTRATGIPARFSGSGSGTDFTLTISSLEPEDFAVYYCQQYGSSLPPTFGGGTKVEIK
B8: AB449 (antibody, IgG1, V domains shown)
VH: B6 VH with V27L, V32A, R33K, N54S, P55T, S56T, S58T, L111T
VL: DIQMTQSPSSVSASVGDRVTITCRASQGISRDLAWYQQKPGKAPKLLIYAASTLVSGVPSRFSGSGSGTDFTLTISSLQPEDFANYYCQQYVSAPPYTFGGGTKVEIK
B9: AB465 (antibody, IgG1, V domains shown)
VH: B6 VH with V27A, L29V, V32A, M34T, V53I, S58R, T59I, L111T
VL: EIVMTQSPATLSLSPGERATLSCRASQTVSSHLAWYQQKPGQAPRLLIYDVSHRASGIPARFSGSGSGTDFTLTISSLEPEDFAVYYCQQYFTLPTFGGGTKVEIK
B10: AB433 (antibody, IgG1, V domains shown)
VH: B6 VH with V27F, S28P, N31T, V32S, V53I, S58A, L111T
VL: EIVMTQSPATLSLSPGERATLSCRASQSVRTSLAWYQQKPGQAPRLLIYDTSIRAAGIPARFSGSGSGTDFTLTISSLEPEDFAVYYCQQYGNWHFGGGTKVEIK
B11: AB352 (antibody, IgG1, V domains shown)
VH: B6 VH with V27F, S28P, N31T, V32S, V53I, S58A, L111T
VL: EIVMTQSPATLSLSPGERATLSCRASQSVSTHLAWYQQKPGQAPRLLIYDATNRATGIPARFSGSGSGTDFTLTISSLEPEDFAVYYCLQYTNYPWTFGGGTKVEIK
B12: AB435 (antibody, IgG1, V domains shown)
VH: B6 VH with V27Y, S30T, N31D, V32A, M34I, V53I, S58R, L111T
VL: EIVMTQSPATLSLSPGERATLSCRASQSIGTKLAWYQQKPGQAPRLLIYDASSRVPGIPARFSGSGSGTDFTLTISSLEPEDFAVYYCQQYGSSPPVYSFGGGTKVEIK
B13: AB338 (antibody, IgG1, V domains shown)
VH: EVQLVESGGGLVQPGGSLRLSCAASGFTASRNYMSWVRQAPGKGLELVASISGSGDYTYYPDSVKGRFTISRDNAKNSLYLQMNSLRAEDTAVYYCARSPRGPRLLGYYYGMDVWGQGTTVTVSS
VL: DIVMTQSPLSLPVTPGEPASISCRSSQSLLHSNEKNYLHWYLQKPGQSPQLLIYDASKRASGVPDRFSGSGSGTDFTLKISRVEAEDVGVYYCVQDLHTPFTFGGGTKVEIK

How the values were obtained:
Latent Activin A [1] = target: T1, Latent Activin A; assay: ELISA dose-response, coated antigen
Method: (§1) Antibodies were re-expressed in 40 mL cultures of Expi293 cells and purified using protein G magnetic sepharose beads (Cytiva, Marlborough, MA) to provide larger quantities for secondary screening. Secondary screening included dose responses in both functional assays described above (SMAD nuclear localization and fibroblast activations assays) as well as in binding assays to the same antigens listed in Table 3. Plates were coated with 25 μL of 3 μg/mL antigen in 384-well Maxisorp plates overnight at 4° C. with agitation. The next day, the samples in the plates were blocked with 70 μL blocking buffer (PBS+1% BSA+0.1% Tween-20) for 2 hours at room temperature. Plates were then washed three times with 100 μL of wash buffer (PBS+0.1% Tween-20). Primary antibodies in Expi293 expression medium were diluted 1:3 in blocking buffer, 25 μL added per well, and the plates were incubated for an hour at room temperature with agitation. Plates were then washed three times and 25 μL of secondary antibody (goat anti-Human IgG, HRP conjugated; Jackson Immunoresearch) diluted 1:5000 in blocking buffer was added for 30 minutes at room temperature. The wells in the plates were washed six times with wash buffer and TMB substrate was added followed by 1 M H3PO4.

Mature Activin A [2] = target: T2, Mature Activin A; assay: ELISA dose-response, coated antigen
Method: as §1

Activin B [3] = target: T3, Activin B; assay: ELISA dose-response, coated antigen
Method: as §1

Latent Activin A [4] = target: T1, Latent Activin A; assay: ELISA, coated antigen, OD450
Method: as §1

Mature Activin A [5] = target: T2, Mature Activin A; assay: ELISA, coated antigen, OD450
Method: as §1

Activin B [6] = target: T3, Activin B; assay: ELISA, coated antigen, OD450
Method: as §1

Inhibin A [7] = target: T4, Inhibin A; assay: ELISA, coated antigen, OD450
Method: as §1

Inhibin A [8] = target: T4, Inhibin A; assay: ELISA, coated antigen, OD450; remark: listed apart in the source

Binder	EC50 (Latent Activin A [1])	EC50 (Mature Activin A [2])	EC50 (Activin B [3])	fold-change of OD 450 over negative control (BSA) (Latent Activin A [4])	fold-change of OD 450 over negative control (BSA) (Mature Activin A [5])	fold-change of OD 450 over negative control (BSA) (Activin B [6])	fold-change of OD 450 over negative control (BSA) (Inhibin A [7])	binding result (Inhibin A [8])
B1	0.87 nM	0.42 nM	0.49 nM	–	–	–	–	–
B2	–	–	–	5.64 fold	7.16 fold	0.43 fold	0.43 fold	–
B3	–	–	–	4.82 fold	7.63 fold	0.63 fold	0.53 fold	–
B4	1 nM	0.03 nM	0.27 nM	–	–	–	–	–
B5	–	–	–	6.59 fold	6.99 fold	2.44 fold	0.77 fold	–
B6	–	–	–	10.4 fold	8.86 fold	1.72 fold	0.74 fold	no binding (tested: 1.40-fold over BSA)
B7	–	–	–	13.8 fold	14 fold	2.46 fold	0.58 fold	–
B8	–	–	–	4.95 fold	6.63 fold	0.76 fold	0.65 fold	–
B9	–	–	–	5.82 fold	6.84 fold	0.87 fold	0.46 fold	–
B10	–	–	–	10.5 fold	9.41 fold	2.5 fold	0.72 fold	–
B11	–	–	–	15.2 fold	16.2 fold	2.03 fold	0.61 fold	no binding (tested: 1.40-fold over BSA)
B12	–	–	–	6.66 fold	8.09 fold	0.84 fold	0.74 fold	–
B13	–	–	–	1.44 fold	1.94 fold	0.68 fold	0.9 fold	–
